The text below walks through data of paper PMC3884668.

This series has as its target T1, DIS3L2 (rDIS3L2, wild type) (Homo sapiens, UniProt Q8IYB7 1-885).
T1 sequence: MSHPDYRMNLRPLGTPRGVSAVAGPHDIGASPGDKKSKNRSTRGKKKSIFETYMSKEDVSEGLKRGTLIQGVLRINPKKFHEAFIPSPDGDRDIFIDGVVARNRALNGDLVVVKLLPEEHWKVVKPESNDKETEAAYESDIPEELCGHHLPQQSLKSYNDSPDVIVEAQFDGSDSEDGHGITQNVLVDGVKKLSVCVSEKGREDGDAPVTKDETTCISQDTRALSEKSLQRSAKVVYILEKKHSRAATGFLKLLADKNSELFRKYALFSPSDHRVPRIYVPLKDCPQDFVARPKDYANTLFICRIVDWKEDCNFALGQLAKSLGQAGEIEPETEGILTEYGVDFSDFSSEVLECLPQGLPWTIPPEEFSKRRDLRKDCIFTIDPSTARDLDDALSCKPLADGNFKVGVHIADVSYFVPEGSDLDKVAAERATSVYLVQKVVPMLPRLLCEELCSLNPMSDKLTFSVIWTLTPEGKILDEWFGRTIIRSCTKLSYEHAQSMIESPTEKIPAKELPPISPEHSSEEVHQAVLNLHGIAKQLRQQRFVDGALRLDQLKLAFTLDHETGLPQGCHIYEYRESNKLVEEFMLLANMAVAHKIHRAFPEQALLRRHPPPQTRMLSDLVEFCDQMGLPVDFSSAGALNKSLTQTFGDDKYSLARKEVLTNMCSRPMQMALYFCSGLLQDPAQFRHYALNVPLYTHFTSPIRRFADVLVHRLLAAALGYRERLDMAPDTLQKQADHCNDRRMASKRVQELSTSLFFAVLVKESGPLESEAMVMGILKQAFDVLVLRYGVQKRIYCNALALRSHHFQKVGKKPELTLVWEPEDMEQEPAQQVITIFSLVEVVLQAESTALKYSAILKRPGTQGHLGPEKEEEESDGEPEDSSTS
Briefly: EMSA. On the technique in general: Mobility shift assays separate free from complexed probe on a gel.

Take UUUUUUUUUUUUUUUUUUUUUUUUUUUUUU (ssRNA) [U30 RNA]: the binding result is on record as “binds”.
